Results: IntAct's records for PubMed 28062662

B1: Glutaryl-CoA dehydrogenase, mitochondrial (Homo sapiens), Q92947 (parent)
chain: MALRGVSVRLLSRGPGLHVLRTWVSSAAQTEKGGRTQSQLAKSSRPEFDWQDPLVLEEQLTTDEILIRDTFRTYCQERLMPRILLANRNEVFHREIISEMGELGVLGPTIKGYGCAGVSSVAYGLLARELERVDSGYRSAMSVQSSLVMHPIYAYGSEEQRQKYLPQLAKGELLGCFGLTEPNSGSDPSSMETRAHYNSSNKSYTLNGTKTWITNSPMADLFVVWARCEDGCIRGFLLEKGMRGLSAPRIQGKFSLRASATGMIIMDGVEVPEENVLPGASSLGGPFGCLNNARYGIAWGVLGASEFCLHTARQYALDRMQFGVPLARNQLIQKKLADMLTEITLGLHACLQLGRLKDQDKAAPEMVSLLKRNNCGKALDIARQARDMLGGNGISDEYHVIRHAMNLEAVNTYEGTHDIHALILGRAITGIQAFTASK
partner: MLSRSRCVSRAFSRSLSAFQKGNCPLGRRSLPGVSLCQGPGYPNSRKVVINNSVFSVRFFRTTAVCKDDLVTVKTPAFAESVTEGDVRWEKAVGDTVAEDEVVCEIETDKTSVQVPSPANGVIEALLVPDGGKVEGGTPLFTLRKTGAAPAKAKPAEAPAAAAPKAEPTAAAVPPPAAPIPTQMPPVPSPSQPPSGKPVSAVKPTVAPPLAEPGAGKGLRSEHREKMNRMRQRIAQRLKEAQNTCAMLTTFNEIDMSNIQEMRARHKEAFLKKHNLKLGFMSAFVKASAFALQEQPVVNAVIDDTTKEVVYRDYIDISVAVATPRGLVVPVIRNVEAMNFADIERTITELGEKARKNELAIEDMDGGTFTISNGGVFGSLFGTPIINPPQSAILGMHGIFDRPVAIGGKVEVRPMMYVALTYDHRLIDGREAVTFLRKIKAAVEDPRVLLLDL
B2: Glutaryl-CoA dehydrogenase, mitochondrial (Homo sapiens), Q92947 (parent)
chain: B1 chain
partner: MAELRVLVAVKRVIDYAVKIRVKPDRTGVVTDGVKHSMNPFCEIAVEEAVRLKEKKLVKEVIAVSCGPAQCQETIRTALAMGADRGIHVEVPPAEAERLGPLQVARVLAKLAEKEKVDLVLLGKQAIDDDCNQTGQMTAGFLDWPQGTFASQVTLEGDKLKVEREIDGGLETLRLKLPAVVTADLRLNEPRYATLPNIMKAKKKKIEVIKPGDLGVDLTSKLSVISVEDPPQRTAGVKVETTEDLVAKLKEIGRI

Variants of: B1
Conditions: with odo2_human DLST

Variant	effect of a mutation on the interaction
G117R	increasing interaction strength
E90K	increasing interaction strength
C115Y	increasing interaction strength
Y155H	decreasing interaction strength
G244C	increasing interaction strength
P248L	increasing interaction strength
Y113H	decreasing interaction strength
G101R	decreasing interaction strength
R94L	increasing interaction strength
R227P	decreasing interaction strength
R161Q	increasing interaction strength
W50C	increasing interaction strength
P217L	decreasing interaction strength
R88C	increasing interaction strength
S119L	increasing interaction strength

Now from value to variant:

effect of a mutation on the interaction	Variant
decreasing interaction strength	R355H
increasing interaction strength	P278S
increasing interaction strength	M263V

Variants of: B2
Conditions: with etfb_human ETFB

effect of a mutation on the interaction	Variant
increasing interaction strength	G244C
increasing interaction strength	R355H
increasing interaction strength	P248L
increasing interaction strength	P278S
increasing interaction strength	M263V
